Starred links: 1 amine or outer side, 2 acyl side, 3 side chain; linkers in the order of their positions; H or OH if unused. Non-standard residues stand in square brackets, D forms with d. Groups on a side chain read outwards from the residue. No end group written: not given here. *: point of attachment. C20 diacid = O=C(O)CCCCCCCCCCCCCCCCCCC(=O)*; C18 diacid = O=C(O)CCCCCCCCCCCCCCCCC(=O)*; γGlu = O=C(O)[C@H](CCC(=O)[*:2])N[*:1]; AEEA = NCCOCCOCC(=O)O; Aib = CC(C)(N)C(=O)O; Ahx = NCCCCCC(=O)O
T1: human GIP receptor (human, UniProt P48546 22-466)
T1 sequence (looked up): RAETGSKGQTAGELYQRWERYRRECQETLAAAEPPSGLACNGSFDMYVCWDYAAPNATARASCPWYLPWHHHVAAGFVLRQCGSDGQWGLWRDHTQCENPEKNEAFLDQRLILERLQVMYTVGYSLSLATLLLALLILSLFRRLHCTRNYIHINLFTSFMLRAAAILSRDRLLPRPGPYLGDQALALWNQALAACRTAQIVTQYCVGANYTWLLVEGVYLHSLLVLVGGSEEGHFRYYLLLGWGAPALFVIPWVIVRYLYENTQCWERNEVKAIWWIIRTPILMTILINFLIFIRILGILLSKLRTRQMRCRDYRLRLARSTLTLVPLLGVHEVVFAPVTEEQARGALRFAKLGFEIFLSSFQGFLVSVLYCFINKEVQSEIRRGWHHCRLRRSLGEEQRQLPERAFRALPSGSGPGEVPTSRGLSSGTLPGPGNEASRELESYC

T2: human neuropeptide Y2 receptor (human, UniProt P49146 1-381)
T2 sequence (looked up): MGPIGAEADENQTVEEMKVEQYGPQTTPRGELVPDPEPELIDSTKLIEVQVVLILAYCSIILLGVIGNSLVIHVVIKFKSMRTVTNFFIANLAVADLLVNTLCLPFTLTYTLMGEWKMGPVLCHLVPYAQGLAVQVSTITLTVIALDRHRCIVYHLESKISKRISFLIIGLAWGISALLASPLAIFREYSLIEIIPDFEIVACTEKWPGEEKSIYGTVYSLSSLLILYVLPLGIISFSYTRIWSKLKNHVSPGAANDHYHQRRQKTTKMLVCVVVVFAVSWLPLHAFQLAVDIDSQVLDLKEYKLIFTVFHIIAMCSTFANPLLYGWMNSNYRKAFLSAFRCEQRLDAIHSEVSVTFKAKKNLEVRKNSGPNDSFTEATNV

B1: Compound 285 (peptide)
peptide: Y[Aib]EGTFTSDYSI[Aib]LEKQAQ[Aib]AFVEWLIKGGPEEGASLRHYYNWLTRQRY-NH2
modifications: not fully specified (residue 28); also: TFA salt
B2: Compound 279 (peptide)
peptide: Y[Aib]EGTFTSDYSI[Aib]LEKQAQ[Aib]EFVEWLIK([Ahx-γGlu-γGlu-γGlu-γGlu-γGlu-γGlu-C18 diacid])GGPSEGASLRHYYNWLTRQRY-NH2
modifications: also: TFA salt
B3: Compound 295 (peptide)
peptide: Y[Aib]EGTFTSDYSI[Aib]LEKQAQ[Aib]AFVEWLIKGGPSEGASLRHYYNWLTRQRY-NH2
modifications: not fully specified (residue 28); also: TFA salt
B4: Compound 297 (peptide)
peptide: Y[Aib]EGTFTSDYSI[Aib]LEKQAQ[Aib]AFVEWLIK([AEEA-AEEA-γGlu-γGlu-γGlu-γGlu-C18 diacid])GGPSEGASLRHYYNWLTRQRY-NH2
modifications: also: TFA salt
B5: Compound 289 (peptide)
peptide: YXEGTFTSDYSIXLEKQAQXAFVEWLIKGGPSEGASLRHYYNWLTRQRY
modifications: Aib at 2, 13, 20; K28 side chain acylated with C20DA-gGlu-gGlu-gGlu-gGlu-gGlu; C-terminal amide (NH2)
B6: Compound 293 (peptide)
peptide: B5 peptide
modifications: Aib at 2, 13, 20; K28 side chain acylated with C18DA-gGlu-Glu-gGlu-gGlu-gGlu-gGlu-eLys (so in the source); C-terminal amide (NH2)
B7: Compound 292 (peptide)
peptide: B5 peptide
modifications: Aib at 2, 13, 20; K28 side chain acylated with C18DA-gGlu-gGlu-gGlu-gGlu-gGlu; C-terminal amide (NH2)
B8: Compound 283 (peptide)
peptide: Y[Aib]EGTFTSDYSI[Aib]LEKQAQ[Aib]AFIEWLIK([γGlu-γGlu-γGlu-γGlu-C20 diacid])GGPSEGASLRHYYNWLTRQRY-NH2
modifications: also: TFA salt
B9: Compound 280 (peptide)
peptide: Y[Aib]EGTFTSDYSI[Aib]LEKQAE[Aib]AFVEWLIK([γGlu-γGlu-γGlu-γGlu-C20 diacid])GGPSEGASLRHYYNWLTRQRY-NH2
modifications: also: TFA salt

target: human GLP-1 receptor (human, UniProt P43220 24-463); experiment: cell-based or functional assay

| Binder | EC50 hGLP1R 0.5% hP (CreLuc) [nM] | EC50 hGLP1R 100% hP (CreLuc) [nM] |
| --- | --- | --- |
| B1 | 0.34 | 11.6 |
| B2 | 0.72 | 13.4 |
| B3 | 0.14 | 3.53 |
| B4 | 0.12 | 3.74 |
| B5 | 0.14 | 3.51 |
| B6 | 0.18 | 4.21 |
| B7 | 0.13 | 5.01 |
| B8 | 0.13 | 3.86 |
| B9 | 0.44 | 14.7 |

target: T1, human GIP receptor; experiment: cell-based or functional assay

| Binder | EC50 hGIPR 0.5% hP (CreLuc) [nM] | EC50 hGIPR 100% hP (CreLuc) [nM] |
| --- | --- | --- |
| B1 | 1.57 | 1.54 |
| B2 | 0.71 | 1.76 |
| B3 | 0.3 | 0.98 |
| B4 | 0.25 | 0.93 |
| B5 | 0.7 | 1.75 |
| B6 | 0.26 | 1.33 |
| B7 | 0.16 | 2.46 |
| B8 | 0.23 | 1.86 |
| B9 | 0.38 | 2.44 |

target: T2, human neuropeptide Y2 receptor; experiment: cell-based or functional assay

| Binder | EC50 hNPY2R 0.5% hP (CreLuc) [nM] | EC50 hNPY2R 100% hP (CreLuc) [nM] |
| --- | --- | --- |
| B1 | 15.8 | 48.8 |
| B2 | 32.4 | 103 |
| B3 | 10.9 | 30.2 |
| B4 | 14.4 | 40.5 |
| B5 | 11.1 | 56.3 |
| B6 | 13.6 | 37.5 |
| B7 | 19.9 | 70 |
| B8 | 14.7 | 104 |
| B9 | 15.6 | 91.4 |

From patent US20240247080A1, “GLP1/GIP/NPY2 RECEPTOR TRIPLE AGONISTS” (Boehringer Ingelheim International GmbH, priority 2022, published 2024)
